From patent publication US20180258181A1

What was measured:
[1] = target: mesothelin on OVCAR-3 cells (UniProt Q13421); assay: FACS titration, IgG on OVCAR-3 cells
[2] = target: mesothelin on OVCAR-3 cells (UniProt Q13421); assay: FACS titration, EC50 on OVCAR-3 against EC50 on NCI-H226

EC50 [1]	x-fold different EC50 on OVCAR-3 vs. NCI-H226 [2]	Binder
9.68 nM	22 fold	MOR06626 IgG (antibody, V domains shown) VH: QVQLVQSGAEVKKPGASVKVSCKASGYTFTGNYINWVRQAPGQGLEWMGIINPTKGWTLYAQKFQGRVTMTRDTSISTAYMELSSLRSEDTAVYYCARWHHGTWIFDYWGQGTLVTVSS VL: DIVLTQPPSVSGAPGQRVTISCSGSSSNIGSNYVSWYQQLPGTAPKLLIYNDNQRPSGVPDRFSGSKSGTSASLAITGLQSEDEADYYCSTYDRRTFSVFGGGTKLTVLG
–	22.1 fold	MOR06638 IgG (antibody, V domains shown) VH: QVQLVQSGAEVKKPGASVKVSCKASGYTFTGNYINWVRQAPGQGLEWMGIINPHGGDTKYAQKFQGRVTMTRDTSISTAYMELSSLRSEDTAVYYCARWHHGTWIFDYWGQGTLVTVSS VL: DIVLTQPPSVSGAPGQRVTISCSGSSSNIGSNYVSWYQQLPGTAPKLLIYNDNQRPSGVPDRFSGSKSGTSASLAITGLQSEDEADYYCSSWDRADGSYVFGGGTKLTVLG
–	0.5 fold	MOR06631 IgG (antibody, V domains shown) VH: QVQLVQSGAEVKKPGESLKISCKGSGYSFTNYWIGWVRQMPGKGLEWMGFIWPVDSWTQYSPSFQGQVTISADKSISTAYLQWSSLKASDTAMYYCARYGHGMYGGALDVWGQGTLVTVSS VL: DIVLTQSPATLSLSPGERATLSCRASQSVRSSRLAWYQQKPGQAPRLLIYGASKRATGVPARFSGSGSGTDFTLTISSLEPEDFATYYCQQYYDFPPTFGQGTKVEIKR
–	1.7 fold	MOR07111 IgG (antibody, V domains shown) VH: QVQLVQSGAEVKKPGESLKISCKGSGYSFTNYWIGWVRQMPGKGLEWMGVIMPSDSYTRYSPSFQGQVTISADKSISTAYLQWSSLKASDTAMYYCARYGHGMYGGALDVWGQGTLVTVSS VL: DIVLTQSPATLSLSPGERATLSCRASQSVRSSRLAWYQQKPGQAPRLLIYGASKRATGVPARFSGSGSGTDFTLTISSLEPEDFAVYYCQQFYSKPITFGQGTKVEIKR
–	3.4 fold	MOR06669 IgG (antibody, V domains shown) VH: QVQLVQSGAEVKKPGESLKISCKGSGYSFTNYWIGWVRQMPGKGLEWMGIIWPIDSFTQYSPSFQGQVTISADKSISTAYLQWSSLKASDTAMYYCARYGHGMYGGALDVWGQGTLVTVSS VL: DIVLTQSPATLSLSPGERATLSCRASQSVRSSRLAWYQQKPGQAPRLLIYGASKRATGVPARFSGSGSGTDFTLTISSLEPEDFATYYCQQYYDFPPTFGQGTKVEIKR
0.53 nM	14 fold	MOR06657 IgG (antibody, V domains shown) VH: QVQLVQSGAEVKKPGSSVKVSCKASGGTFSSYYFSWVRQAPGQGLEWMGGIIPKFGSANYAQKFQGRVTITADESTSTAYMELSSLRSEDTAVYYCARRTSMDYWGQGTLVTVSS VL: DIALTQPASVSGSPGQSITISCTGTSSDVGGYNYVSWYQQHPGKAPKLMIYSVSKRPSGVSNRFSGSKSGNTASLTISGLQAEDEADYYCATWDHSQMGKVFGGGTKLTVLG
